Results on two molecules are retold here after patent US8846363B2, “Compositions of and methods of using sulfatases from Flavobacterium heparinum” (priority 2007, dated 2014).

The nature of experiment [1]: Fluorimetric arylsulfatase assay using 4-MUS. The format is biochemical. The protocol: Arylsulfatase activity was measured independently using two chromogenic substrates, 4-catechol-sulfate and 4-methylumbelliferyl-sulfate (4-MUS). The catechol substrate assay was conducted generally as described (Beil et al., 1995 Eur J Biochem 229, 385-394). Briefly, 10 mM substrate were incubated with ˜30 μM recombinant enzyme overnight (12-15 hours) at 37° C. in a 100 μL reaction which included 50 mM MES pH 7.0 and +2 mM CaCl2. Reactions were quenched by the addition of 5 μL 5M NaOH and colorimetric activity determined spectroscopically at 515 nm. Fluorimetric arylsulfatase assay using 4-MUS was as described (Morimoto-Tomita et al., 2002 J Biol Chem 277, 49175-85) with some modifications. Reaction conditions included 10 μM enzyme, 2 mM 4-MUS, 50 mM sodium acetate, pH 6.0, and 5 mM CaCl2 in a 20 μL reaction volume. The enzyme incubation temperature was 30° C. Activity was measured as a function of time ranging from 3 to 24 hours; the reactions were quenched by the addition of 200 μL 0.5 M Na2CO3, pH 10.7. Detection of fluorescent methylumbelliferone was measured at this alkaline pH using a SpectraMax microtiter plate reader ([…], Sunnyvale, Calif.) set at excitation and emission wavelengths of 360 and 440 nm, respectively. Fluorescence intensity was corrected against background (minus enzyme control). In both assays, 0.5 unit of arylsulfatase from Aerobacter aerogenes (Sigma, St. Louis, Mo.) was used as a positive control.

A short description of experiment [2]: Effect of pH on N-sulfamidase activity by capillary electrophoresis. The format is biochemical. The protocol:
Initial assessment of substrate specificity and pH optima was made using a capillary electrophoresis-based assay for the detection of desulfated products. Preliminary enzyme activity was measured against the following series of fluorescently derivatized, monosulfated gluco and galactopyranosides: 4-MU-GlcNAc,6S, 4-MU-GlcNS, 4-MU-GalNAc,6S and 4-MU-Gal6S. Standard reactions included 1 mM substrate, 1-10 μM enzyme, 50 mM sodium acetate, pH 5.5-6.5 and 5 mM CaCl2 in a 20 μL reaction volume. For pilot experiments, exhaustive reactions involved overnight incubations at 30° C. Enzyme was inactivated by heat denaturation at 95° C. for 10 minutes, followed by a 10-fold dilution into water. Reaction products were resolved by capillary electrophoresis using a 25 cm long, 75 μm (i.d.) fused silica capillary (Agilent Technologies, Palo Alto, Calif.). Electrophoresis was carried out under negative polarity by applying a voltage of −15 kV (˜1.2 W) for 10 minutes. Substrate desulfation was measured as a percentage of substrate depletion relative to a minus enzyme control as monitored by the loss of UV absorbance at 315 nm detected at approximately 4 minutes. A standard capillary electrophoresis buffer included 50 mM Tris and 10 μM dextran sulfate (average MW of 10,000 Da) adjusted to pH 2.0 with phosphoric acid. At this pH, saccharide migration occurred on the basis of charge without the influence of electro-osmotic flow.
The effect of pH was likewise measured by capillary electrophoresis using the following three sets of buffers with overlapping pH ranging from 4.5 to 8.0:50 mM sodium citrate at 4.5, 5.0, and 5.5; 50 mM MES at 5.5, 6.0, 6.5 and 7.0; and 50 mM MOPS at 6.5, 7.0, 7.5, and 8.0. Reactions included 1 μM enzyme, 2 mM 4-MU-GlcNAc,6S (for 6-O-sulfatase) or 4-MU-GlcNS (for N-sulfamidase), 50 mM buffer and 5 mM CaCl2 in a 20 μL reaction volume. Assay was initiated by the addition of 2 μl of a 10× enzyme stock to 18 μL of preheated reaction mixture. […]

B1: Flavobacterium heparinum 6-O-sulfatase (ORF B), recombinant, NH2-terminal truncation lacking signal sequence, SEQ ID NO: 2 (Pedobacter heparinus DSM 2366) (protein)
chain: TLMSCQQPKPAESAKRPNIVFIMTDDHTIQAISAYGSKLVKTPNLDRIANEGMLFNNCFVTNAVCGPSRATILTGKYSHLNGLTDNSKVFDSTQVIYPQLLKKAGYQTAMIGKWHLGSTPMGFDYYSILPNQGQYYQPEFIENGHLVKEKGYVTDLITDKAIGFLEKRDHDKPFLMIYQHKAPHRNWLPAPRHLGMFDDTVFPEPANLLDDFKGRGRAAKEQLMNISTDMWPAWDLKMLSTAQLDSMAKLPVSPKFKDAKGDDYQQANDPSLDKARFFEVYNRMTDAEKVQWRKVYDKRVAEFKRLNPKGADLVRWKYQQYMRDYLACVVSVDENVGRLMDYLKKIGELDNTIIVYTSDQGFYLGEHGYFDKRFMYDESFRTPLMVRYPPSVKAGSVSNAFAMNLDFAPTLLDYAGVKIPADMQGLSLRPVLDNAGKSPENWRKAVYYHYYEFPSWHMVKRHYGIRTERYKLIHFYNDIDEWELYDMQKDPHEMQNLYNDKAYEPIIKDLKVQMKKLQVQYKDTNPTEAL
notes: E. coli BL21(DE3), N-terminal 6xHis removed by thrombin
Consider B1, for which, in experiment [1], the “hydrolysis of 4-MU sulfate” value is listed as “partly hydrolyze” and the “rate of 4-MU sulfate hydrolysis relative to the ORF C protein” value is “at least 3 fold”.

B2: Flavobacterium heparinum N-sulfamidase (ORF C), recombinant, NH2-terminal truncation lacking signal sequence, SEQ ID NO: 4 (Pedobacter heparinus DSM 2366) (protein)
chain: SCTSPEKKTDRPNILMIMSDNQSWNHVGSYGDQTVRTPNMDRIAKEGVRFTNAFCSSPSCTPARAGMLTGQDIWRLEDGGNLWGVLPVKYKVYPDLLEEAGYAIGFQGKGWGPGSFEANKRPRNPAGNEFKSFGAFLKDKKEGPWCYWISSHEPHRPYVEGSGEKAGIDPNKVKVPAYLPDHISIRKDIADYYAAVETFDRELGEALDQLKASGELDNTVIVVCSDNGWQMPRGLANLYDFGTHVPLIISWPGKFKQDVVADNLVTLNDLAPTFLQLGKVPVPADMTGKSLLPIVEAGKKDEKPRDYVVLGRERHAFVRRHGLGYPGRAIRTKDYLYIKNYEPNRWPAGDPPFYGDIDPYMFNWPGETKYYLIEHKDDPKVKSFFELGMGKRPAEELFDINKDPDELHNLAALPEYQKIKQELVAKLRNYLVATKDPRETNGNIQIWDTAAYFSEIDKTPKPSKEMQKRFKLDSSYNYLK
notes: as for B1
Regarding B2, the “activity below pH 4.5” value in experiment [2] (below pH 4.5) was “Neither enzyme was active”. Further, in experiment [2] (compared with 6-O-sulfatase), the “pH range of activity compared with the other enzyme” value is on record as “active over a broader range, especially above pH 7.0”. In addition, the “activity in acetate buffer compared to sulfonate buffers (MES, MOPS)” value in experiment [2] (same pH range) is “higher activity in acetate buffer”. For the same molecule, the “hydrolysis of 4-MU sulfate” value in experiment [1] is reported as “only negligible activity”.
